Consider two proteins from article PMC3155264 (Cell, 2011).

Data set [1] deals with the molecule itself. Briefly: SEC.
Data set [2] concerns the molecule itself. Briefly: crystal structure.

B1: MinE^21-88 (domain or fragment, E. coli, UniProt P0A734 21-88, looked up)
chain: RLQIIVAERRRSDAEPHYLPQLRKDILEVICKYVQIDPEMVTVQLEQKDGDISILELNVTLPEAEELK
As to B1, the binding result in data set [1] was “binds”.

B2: MinE^I24N*-h (domain or fragment, E. coli, UniProt P0A734 12-88, looked up)
chain: KNTANIAKERLQNIVAERRRSDAEPHYLPQLRKDILEVICKYVQIDPEMVTVQLEQKDGDISILELNVTLPEAEELK
As for B2, in data set [2], the binding result was “binds”.
